We go through two molecules from patent US20200239593A1 (AIMM THERAPEUTICS B V, published 2020).

Assay [1] deals with T1, snRNP200 (endogenous, from THP-1 cells) (human, UniProt O75643 1-2136).
T1 construct: also called U5-snRNP
Put plainly: immunoprecipitation from THP-1 membrane lysate, Western blot with mouse-anti-human snRNP200. Here is the method: FIG. 20A. THP-1 membrane lysate was incubated with AT12-023 and AT13-031, with the influenza-specific antibody AT10-002 or with marker alone.
THP-1 cells were lysed and precleared with an irrelevant antibody (in-house generated RSV antibody D25) and beads to remove non specific binding proteins. Precleared lysate was then incubated with bead-labeled AML-specific antibodies or with the influenza specific antibody AT10-002 as a negative control (3 hrs at 4° C.). Antibody-incubated lysates were washed five times, bound proteins were eluted from the THP-1 lysate and then run on an SDS-PAGE gel. Proteins were blotted and stained with Ponseau S to reveal total protein. The blot was blocked with BSA and incubated with mouse-anti-snRNP200 (Millipore, clone 3B6.1) or Rabbit-anti-HMGB1 (Abcam) for Western blot analysis. Intracelllar staining for snRNP200 was performed after fixing and permeabilizing THP-1 cells with methanol (Sigma) and permeabilization buffer containing triton X-100 (Sigma), EDTA (Gibco) and BSA (Roche), followed by incubation with rabbit-anti-human snRNP200 antibody (Sigma) overnight at 4° C.

In a further assay the target is T2, snRNP200-flag construct (UniProt O75643 1-2136, limits assumed).
T2 construct: mature; Used as lysate at 3 ug/ml, not purified; also called full-length snRNP200 with an N-terminal FLAG tag; not shown: N-terminal FLAG tag
T2 sequence (O75643 whole entry): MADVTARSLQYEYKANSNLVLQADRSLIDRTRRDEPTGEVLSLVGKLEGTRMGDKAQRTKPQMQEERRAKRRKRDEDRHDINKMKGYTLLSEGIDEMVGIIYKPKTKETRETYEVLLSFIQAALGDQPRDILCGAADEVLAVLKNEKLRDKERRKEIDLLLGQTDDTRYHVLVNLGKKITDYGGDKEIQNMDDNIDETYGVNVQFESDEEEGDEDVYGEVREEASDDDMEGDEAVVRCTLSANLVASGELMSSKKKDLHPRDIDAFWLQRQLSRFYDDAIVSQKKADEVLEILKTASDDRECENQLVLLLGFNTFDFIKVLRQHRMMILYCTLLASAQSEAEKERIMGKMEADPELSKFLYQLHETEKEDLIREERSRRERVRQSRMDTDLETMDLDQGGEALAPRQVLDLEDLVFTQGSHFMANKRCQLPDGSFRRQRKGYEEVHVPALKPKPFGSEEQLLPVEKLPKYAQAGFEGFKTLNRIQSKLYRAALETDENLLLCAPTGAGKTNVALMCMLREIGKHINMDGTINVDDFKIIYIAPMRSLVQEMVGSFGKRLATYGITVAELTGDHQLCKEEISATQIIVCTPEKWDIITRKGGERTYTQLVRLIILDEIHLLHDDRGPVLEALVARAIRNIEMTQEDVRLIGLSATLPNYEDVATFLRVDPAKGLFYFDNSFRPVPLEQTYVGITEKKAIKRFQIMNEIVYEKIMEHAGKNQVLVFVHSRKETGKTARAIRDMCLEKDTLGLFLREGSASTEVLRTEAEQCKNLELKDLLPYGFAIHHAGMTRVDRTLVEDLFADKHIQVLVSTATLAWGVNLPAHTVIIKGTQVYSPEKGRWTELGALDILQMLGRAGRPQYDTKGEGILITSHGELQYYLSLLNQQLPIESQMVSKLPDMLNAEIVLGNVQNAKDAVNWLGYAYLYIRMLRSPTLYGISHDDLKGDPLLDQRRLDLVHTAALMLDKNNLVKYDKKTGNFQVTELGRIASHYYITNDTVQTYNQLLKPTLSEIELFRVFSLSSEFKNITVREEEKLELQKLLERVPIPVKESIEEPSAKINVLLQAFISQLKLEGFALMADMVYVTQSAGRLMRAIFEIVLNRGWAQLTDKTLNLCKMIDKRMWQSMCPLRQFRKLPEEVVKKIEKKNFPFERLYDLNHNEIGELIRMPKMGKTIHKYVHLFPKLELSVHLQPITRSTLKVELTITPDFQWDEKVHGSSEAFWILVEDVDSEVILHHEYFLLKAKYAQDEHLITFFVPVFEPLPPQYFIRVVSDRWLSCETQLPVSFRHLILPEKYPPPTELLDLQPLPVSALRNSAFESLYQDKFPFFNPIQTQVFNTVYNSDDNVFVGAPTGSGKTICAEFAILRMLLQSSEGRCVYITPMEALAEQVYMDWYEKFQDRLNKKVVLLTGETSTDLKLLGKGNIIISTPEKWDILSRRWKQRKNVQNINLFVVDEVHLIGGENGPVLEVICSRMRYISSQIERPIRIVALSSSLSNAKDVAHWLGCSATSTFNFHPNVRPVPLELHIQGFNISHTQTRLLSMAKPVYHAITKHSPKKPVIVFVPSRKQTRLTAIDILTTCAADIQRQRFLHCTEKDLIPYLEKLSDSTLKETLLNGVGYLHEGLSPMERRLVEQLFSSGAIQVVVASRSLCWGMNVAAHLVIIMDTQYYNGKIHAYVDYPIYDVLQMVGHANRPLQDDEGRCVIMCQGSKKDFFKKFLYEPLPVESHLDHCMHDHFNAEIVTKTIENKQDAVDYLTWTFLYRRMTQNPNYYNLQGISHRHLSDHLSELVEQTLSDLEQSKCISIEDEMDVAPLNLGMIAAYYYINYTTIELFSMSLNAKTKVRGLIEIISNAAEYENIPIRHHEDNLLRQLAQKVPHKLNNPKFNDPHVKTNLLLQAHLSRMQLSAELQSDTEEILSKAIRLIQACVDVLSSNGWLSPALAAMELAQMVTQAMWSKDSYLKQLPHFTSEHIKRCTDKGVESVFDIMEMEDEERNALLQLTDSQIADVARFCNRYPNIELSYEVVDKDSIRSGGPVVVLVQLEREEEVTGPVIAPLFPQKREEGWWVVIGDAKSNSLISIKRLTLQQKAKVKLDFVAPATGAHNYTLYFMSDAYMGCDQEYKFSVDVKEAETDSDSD
Kind of assay: capture ELISA: antibody coated, snRNP200-flag lysate (3 ug/ml) captured, anti-flag HRP detection. Here is the method: FIG. 20B. AML specific antibodies AT12-019, AT12-023, AT13-031 and AT13-037 or commercially available snRNP200-specific antibodies snRNP200 453 and snRNP200 454 were coated on an ELISA plate, incubated with a snRNP200-flag construct for capturing and with anti-flag HRP for detection.
HEK 293T cells were transfected with an expression vector containing the full-length open reading frame of snRNP200 with an N-terminal FLAG tag. At 2 days after transfection cells were harvested and lysed in lysis buffer containing protease inhibitors. This lysate was cleared and protein concentration was measured. AML specific antibodies AT12-019, AT12-023, AT13-031 and AT13-037 or commercially available snRNP200 specific antibodies (Bethyl labs) were then coated on an ELISA plate. The lysate was added at a concentration of 3 μg/ml for capturing. After extensive washing, captured snRNP200-flag was detected with a monoclonal mouse anti-flag HRP antibody (Sigma-Aldrich, clone M2).

T1 sequence (O75643 whole entry): as above

B1: AT12-023 (antibody, V domains shown)
VH: QVQLQQWGAGLLKPSETLSLTCAVYGGSFSGYYWSWIRQPPGKGLEWIGEINHSGSTNYNPSLKSRVTISVDTSKNQFSLKLSSVTAADTAVYYCARGRSTSPLDYYYYYMDVWAKGTTVTVSS
VL: SSELTQDPAVSVALGQTVRITCQGDFLRSYYASWYQQKPGQAPVLVIFGKNKRPSGIPDRFSGSSSGNTASLTITGAQAEDEADYYCNSRDRSGNHLVFGGGTKLTVL
notes: Human antibody from AML patient donor 59; also called antibody AT12-023
Regarding B1, the binding result in assay [1] is reported as “binds”.

B2: AT12-019 (antibody, IgG1, V domains shown)
VH: EVHLLESGGGLVQPGGSLRLSCAASGFTFSSYAMSWVRQAPGKGLEWVSTIRASGGSTSYADSVKGRFTISRDNSQSRLYLQMNSLTAEDTAVYYCAKSPAMIRGVRGGDYFDYWGQGTLVTVSS
VL: AIRLTQSPSSVSASTGDRVTITCRASQAFSSYLVWYQQKPGKAPNLLIYATSTLQGGVPSRFSGSGSGTDFTLTISNLQSEDFATYYCQQYYSYPPTFGQGTKLEIK
notes: Human antibody from AML patient donor 59; also called antibody AT12-019
B2: the binding result in the assay with snRNP200-flag construct is given as “no binding”.
